Test results taken from patent US20190322765A1 (Hoffmann-La Roche, published 2019).
Several values for one entry are separate records, joined by “and”; a condition that tells them apart may be missing. Equal values may be shown once. Each block holds one binder with its values, some of them ahead of it.

Assays:
[1] = target: T1, human IL-2R α-subunit, monomeric, with AcTev cleavage site and Avi His tag (human); experiment: SPR, receptor on CM5, 25°C, kinetic
T1 construct: also called Hu IL-2R α; CD25
T1 chain: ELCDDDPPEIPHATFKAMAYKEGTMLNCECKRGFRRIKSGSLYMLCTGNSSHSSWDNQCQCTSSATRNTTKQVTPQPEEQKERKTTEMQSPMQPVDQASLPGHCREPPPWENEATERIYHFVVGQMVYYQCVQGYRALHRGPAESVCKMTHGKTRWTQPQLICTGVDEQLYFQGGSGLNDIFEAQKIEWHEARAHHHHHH

[2] = target: T2, human IL-2R βγ heterodimer, subunit-Fc knobs-into-holes fusion (human); experiment: SPR, receptor on CM5, 25°C, kinetic
T2 construct: The entries may hold a leader peptide; also called Hu IL-2R βγ; human IL2-R β knob γ hole heterodimer

[3] = target: T3, human DPPIV on transfected HEK 293 cells (human, UniProt P27487 1-766); experiment: FACS on HEK 293-human DPPIV cells, with HEK mock-transfected cells, cells only and sec. antibody as controls; concentration not shown
T3 construct: whole, on cells; also called CD26

[4] = target: T1, human IL-2R α-subunit, monomeric, with …; experiment: SPR, receptor on CM5, 25°C
[5] = target: T4, cynomolgus IL-2R α-subunit, recombinant monomeric (cynomolgus, UniProt H6WS54 22-240); experiment: SPR, receptor on CM5, 25°C
T4 construct: also called Cyno IL-2R α
T4 sequence: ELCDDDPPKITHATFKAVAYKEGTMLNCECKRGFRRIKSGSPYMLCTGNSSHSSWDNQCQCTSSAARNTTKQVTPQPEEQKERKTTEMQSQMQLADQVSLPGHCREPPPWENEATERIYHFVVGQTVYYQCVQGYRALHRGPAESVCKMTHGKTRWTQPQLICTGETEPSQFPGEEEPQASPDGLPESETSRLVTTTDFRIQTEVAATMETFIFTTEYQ

[6] = target: T5, murine IL-2R α-subunit, recombinant monomeric (murine, UniProt P01590 22-236, limits assumed); experiment: SPR, receptor on CM5, 25°C
T5 construct: also called Mu IL-2R α
T5 sequence (looked up): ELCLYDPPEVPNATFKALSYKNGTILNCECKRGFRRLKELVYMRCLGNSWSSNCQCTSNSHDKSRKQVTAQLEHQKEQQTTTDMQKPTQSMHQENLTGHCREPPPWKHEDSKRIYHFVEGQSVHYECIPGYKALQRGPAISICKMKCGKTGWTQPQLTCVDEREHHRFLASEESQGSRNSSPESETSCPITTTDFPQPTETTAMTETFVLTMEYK

[7] = target: FAP on GM05389 fibroblasts; experiment: FACS on GM05389 fibroblasts, surface-bound construct detected with secondary antibody after the times shown (internalization analysis); concentration not shown
[8] = target: T6, human FAP expressed on stably transfected HEK293 cells (human, UniProt Q12884 1-760); experiment: FACS on HEK 293-human FAP cells, median fluorescence against concentration
T6 construct: whole, on cells

[9] = target: T2, human IL-2R βγ heterodimer, subunit-Fc …; experiment: SPR, receptor on CM5, 37°C, 1:1 fit
[10] = target: T7, cynomolgus IL-2R βγ heterodimer (β knob γ hole Fc fusion) (cynomolgus); experiment: SPR, receptor on CM5, 37°C, 1:1 fit
T7 construct: also called Cyno IL-2R βγ

[11] = target: T8, murine IL-2R βγ heterodimer (β knob γ hole Fc fusion) (murine, UniProt P16297 27-240; P34902 23-263); experiment: SPR, receptor on CM5, 37°C, 1:1 fit
T8 construct: also called Mu IL-2R βγ; mouse IL-2R βγ heterodimer; not shown: Fc knob/hole part
T8 sequence (looked up) 1: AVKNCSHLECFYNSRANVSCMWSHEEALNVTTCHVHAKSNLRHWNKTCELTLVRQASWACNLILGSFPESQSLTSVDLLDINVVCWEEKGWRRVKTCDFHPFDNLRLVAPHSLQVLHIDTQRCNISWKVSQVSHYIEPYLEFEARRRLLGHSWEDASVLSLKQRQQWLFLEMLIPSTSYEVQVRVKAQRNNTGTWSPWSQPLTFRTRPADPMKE
T8 sequence (looked up) 2: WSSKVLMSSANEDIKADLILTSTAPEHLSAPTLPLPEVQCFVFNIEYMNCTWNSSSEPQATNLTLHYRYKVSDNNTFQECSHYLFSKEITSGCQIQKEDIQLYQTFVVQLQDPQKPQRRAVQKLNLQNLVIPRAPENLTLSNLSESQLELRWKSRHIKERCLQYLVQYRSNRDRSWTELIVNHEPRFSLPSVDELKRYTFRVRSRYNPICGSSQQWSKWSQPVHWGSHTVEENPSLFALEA

human FAP-His = target: T9, human FAP-His (human, UniProt Q12884 27-760); experiment: SPR bridging: construct captured on immobilized human IL-2R βγ, human FAP analyte, 1:1 fit, 25°C
T9 construct: also called Hu FAP; His-tagged human FAP; not shown: His tag

[12] = target: T6, human FAP expressed on stably …; experiment: FACS on FAP-expressing HEK cells
[13] = target: T2, human IL-2R βγ heterodimer, subunit-Fc …; experiment: SPR, receptor on CM5, 25°C, 1:1 fit
[14] = target: T7, cynomolgus IL-2R βγ heterodimer (β knob …); experiment: SPR, receptor on CM5, 25°C, 1:1 fit
[15] = target: T8, murine IL-2R βγ heterodimer (β knob γ …); experiment: SPR, receptor on CM5, 25°C, 1:1 fit

binding result [1]: no binding (tested: 33.3 nM)
Kd [2]: 7.3 nM and 10.7 nM
B1: MHLG1-KV9 Fab-IL-2 qm-Fab (other)
chain: EVQLVESGGGLVKPGGSLRLSCAASGFTFSNYWMNWVRQAPGKGLEWVAEIRLKSNNFGRYYAASVKGRFTISRDDSKNTLYLQMNSLKTEDTAVYYCTTYGNYVGHYFDHWGQGTTVTVSSASTKGPSVFPLAPSSKSTSGGTAALGCLVKDYFPEPVTVSWNSGALTSGVHTFPAVLQSSGLYSLSSVVTVPSSSLGTQTYICNVNHKPSNTKVDKKVEPKSCDSGGGGSGGGGSGGGGAPASSSTKKTQLQLEHLLLDLQMILNGINNYKNPKLTRMLTAKFAMPKKATELKHLQCLEEELKPLEEVLNGAQSKNFHLRPRDLISNINVIVLELKGSETTFMCEYADETATIVEFLNRWITFAQSIISTLTSGGGGSGGGGSGGGGEVQLVESGGGLVKPGGSLRLSCAASGFTFSNYWMNWVRQAPGKGLEWVAEIRLKSNNFGRYYAASVKGRFTISRDDSKNTLYLQMNSLKTEDTAVYYCTTYGNYVGHYFDHWGQGTTVTVSSASTKGPSVFPLAPSSKSTSGGTAALGCLVKDYFPEPVTVSWNSGALTSGVHTFPAVLQSSGLYSLSSVVTVPSSSLGTQTYICNVNHKPSNTKVDKKVEPKSCD
light: DIQLTQSPSFLSASVGDRVTITCKASQNVDTNVAWYQQKPGQAPRPLIYSASYRYTGVPSRFSGSGSGTEFTLTISSLQPEDFATYYCQQYNSYPLTFGGGTKVEIKRTVAAPSVFIFPPSDEQLKSGTASVVCLLNNFYPREAKVQWKVDNALQSGNSQESVTEQDSKDSTYSLSSTLTLSKADYEKHKVYACEVTHQGLSSPVTKSFNRGEC
notes: Fab-IL-2-Fab immunoconjugate against MCSP with quadruple mutant IL-2; also called MHLG1 KV9 MCSP-targeted Fab-IL2QM-Fab

binding result [3]: no binding
binding result [4]: no binding (tested: 25 nM)
binding result [5]: no binding (tested: 25 nM)
binding result [6]: no binding (tested: 25 nM)
binding result [7]: binds
EC50 (read off the curve) [8]: ~20 nM
Kd [9]: 13.1 nM and 13 nM
Kd [10]: 16.7 nM and 18.1 nM
Kd [11]: 44 nM and 42 nM
Kd (human FAP-His): 0.89 nM
EC50 [12]: 0.85 nM
Kd [13]: 12 nM and 7.4 nM
Kd [14]: 7.8 nM and 8.4 nM
Kd [15]: 60 nM and 63 nM
B2: 29B11 Fab-IL-2 qm-Fab (other)
chain: EVQLLESGGGLVQPGGSLRLSCAASGFTFSSYAMSWVRQAPGKGLEWVSAIIGSGGITYYADSVKGRFTISRDNSKNTLYLQMNSLRAEDTAVYYCAKGWFGGFNYWGQGTLVTVSSASTKGPSVFPLAPSSKSTSGGTAALGCLVKDYFPEPVTVSWNSGALTSGVHTFPAVLQSSGLYSLSSVVTVPSSSLGTQTYICNVNHKPSNTKVDKKVEPKSCDSGGGGSGGGGSGGGGAPASSSTKKTQLQLEHLLLDLQMILNGINNYKNPKLTRMLTAKFAMPKKATELKHLQCLEEELKPLEEVLNGAQSKNFHLRPRDLISNINVIVLELKGSETTFMCEYADETATIVEFLNRWITFAQSIISTLTSGGGGSGGGGSGGGGEVQLLESGGGLVQPGGSLRLSCAASGFTFSSYAMSWVRQAPGKGLEWVSAIIGSGGITYYADSVKGRFTISRDNSKNTLYLQMNSLRAEDTAVYYCAKGWFGGFNYWGQGTLVTVSSASTKGPSVFPLAPSSKSTSGGTAALGCLVKDYFPEPVTVSWNSGALTSGVHTFPAVLQSSGLYSLSSVVTVPSSSLGTQTYICNVNHKPSNTKVDKKVEPKSCD
light: EIVLTQSPGTLSLSPGERATLSCRASQSVTSSYLAWYQQKPGQAPRLLINVGSRRATGIPDRFSGSGSGTDFTLTISRLEPEDFAVYYCQQGIMLPPTFGQGTKVEIKRTVAAPSVFIFPPSDEQLKSGTASVVCLLNNFYPREAKVQWKVDNALQSGNSQESVTEQDSKDSTYSLSSTLTLSKADYEKHKVYACEVTHQGLSSPVTKSFNRGEC
notes: Fab-IL-2-Fab immunoconjugate against FAP with quadruple mutant IL-2
